Test results taken from paper PMC9142589, “Automated vitrification of cryo-EM samples with controllable sample thickness using suction and real-time optical inspection” (Nature Communications, 2022).

Molecular target: the molecule itself
Assay: cryo-EM structure; single particle analysis; apoferritin at 2.5 µM in 150 mM NaCl, 25 mM Tris pH 7.5, 2 mM DTT; 91,000 particles; X-ray model PDB 6RJH fitted into the map

B1: Horse spleen apoferritin (natural protein)
chain: SQIRQNYSTEVEAAVNRLVNLYLRASYTYLSLGFYFDRDDVALEGVCHFFRELAEEKREGAERLLKMQNQRGGRALFQDLQKPSQDEWGTTLDAMKAAIVLEKSLNQALLDLHALGSAQADPHLCDFLESHFLDEEVKLIKKMGDHLTNIQRLVGSQAGLGEYLFERLTLK
notes: horse spleen apoferritin; the X-ray model of horse spleen apoferritin (PDB 6RJH) was fitted into the map; source: bought: Sigma (9013-31-4), purified by gel filtration (Superdex 200 Increase 3.2/300) immediately before vitrification
Does B1 bind?
Result: binds
